Experimental data published in the Human Domainome abundance scans (Beltran et al. 2025).
± gives the uncertainty stated by the source.

B1: Chromodomain-helicase-DNA-binding protein 4, residues 365 to 417; numbered along this chain, Q14839 (parent)
chain: YETDHQDYCEVCQQGGEIILCDTCPRAYHMVCLDPDMEKAPEGKWSCPHCEKE
B2: Calcium-binding protein 2, residues 155 to 219; numbered along this chain, Q9NPB3 (parent)
chain: RELRDAFREFDTNGDGRISVGELRAALKALLGERLSQREVDEILQDVDLNGDGLVDFEEFVRMMS

Variants of: B1
Experiment: abundance fitness (aPCA) (normalised: wild type 0, dead -1); higher = more abundant; growth selection in yeast, the domain comes from the species named
Conditions: Homo sapiens

Going from H49C to H49R, the abundance fitness falls from 0.348 ± 0.19 to -0.044 ± 0.12.

H49Q and H49V are within error of each other in abundance fitness: -0.141 ± 0.2 for the first, -0.185 ± 0.099 for the second.

H49I and H49L are within error of each other in abundance fitness: -0.109 ± 0.17 for the first, -0.213 ± 0.13 for the second.

H49T and H49D are within error of each other in abundance fitness: -0.16 ± 0.14 for the first, -0.241 ± 0.15 for the second.

H49P and H49E are within error of each other in abundance fitness: -0.041 ± 0.12 for the first, -0.247 ± 0.12 for the second.

H49N and H49K are within error of each other in abundance fitness: -0.381 ± 0.23 for the first, -0.2 ± 0.18 for the second.

H49A and E51M are within error of each other in abundance fitness: -0.281 ± 0.11 for the first, -0.03 ± 0.15 for the second.

E51C and E51N are within error of each other in abundance fitness: -0.227 ± 0.13 for the first, -0.357 ± 0.48 for the second.

E51P and E51S are within error of each other in abundance fitness: -0.007 ± 0.12 for the first, -0.127 ± 0.11 for the second.

E51I and E51Q are within error of each other in abundance fitness: -0.331 ± 0.22 for the first, -0.371 ± 0.2 for the second.

E51W and E51Y are within error of each other in abundance fitness: -0.338 ± 0.11 for the first, -0.221 ± 0.23 for the second.

Compared with E51G, E51L is lower in abundance fitness: 0.132 ± 0.091 for the first, -0.275 ± 0.11 for the second.

E51T and E51D are within error of each other in abundance fitness: -0.174 ± 0.15 for the first, -0.111 ± 0.28 for the second.

Work on E51F yielded an abundance fitness of -0.392 ± 0.2.

Variants of: B2
Experiment: as above
Conditions: Homo sapiens

RELLDAFREFDTNGDGRISVGELRAALKALLGERLSQREVDEILQDVDLNGDGLVDFEEFVRMMS [R4L] and RELYDAFREFDTNGDGRISVGELRAALKALLGERLSQREVDEILQDVDLNGDGLVDFEEFVRMMS [R4Y] are within error of each other in abundance fitness: -0.526 ± 0.069 for the first, -0.544 ± 0.36 for the second.

Compared with RELNDAFREFDTNGDGRISVGELRAALKALLGERLSQREVDEILQDVDLNGDGLVDFEEFVRMMS [R4N], RELADAFREFDTNGDGRISVGELRAALKALLGERLSQREVDEILQDVDLNGDGLVDFEEFVRMMS [R4A] is lower in abundance fitness: -0.027 ± 0.12 for the first, -0.28 ± 0.099 for the second.

Compared with RELKDAFREFDTNGDGRISVGELRAALKALLGERLSQREVDEILQDVDLNGDGLVDFEEFVRMMS [R4K], RELTDAFREFDTNGDGRISVGELRAALKALLGERLSQREVDEILQDVDLNGDGLVDFEEFVRMMS [R4T] is lower in abundance fitness: 0.064 ± 0.077 for the first, -0.138 ± 0.097 for the second.

First: RELGDAFREFDTNGDGRISVGELRAALKALLGERLSQREVDEILQDVDLNGDGLVDFEEFVRMMS [R4G]
Second: RELEDAFREFDTNGDGRISVGELRAALKALLGERLSQREVDEILQDVDLNGDGLVDFEEFVRMMS [R4E]
The abundance fitness of the first is lower: -0.255 ± 0.086 for the first, 0.217 ± 0.27 for the second.

RELQDAFREFDTNGDGRISVGELRAALKALLGERLSQREVDEILQDVDLNGDGLVDFEEFVRMMS [R4Q] and RELMDAFREFDTNGDGRISVGELRAALKALLGERLSQREVDEILQDVDLNGDGLVDFEEFVRMMS [R4M] are within error of each other in abundance fitness: -0.21 ± 0.11 for the first, -0.144 ± 0.095 for the second.

RELDDAFREFDTNGDGRISVGELRAALKALLGERLSQREVDEILQDVDLNGDGLVDFEEFVRMMS [R4D] and RELSDAFREFDTNGDGRISVGELRAALKALLGERLSQREVDEILQDVDLNGDGLVDFEEFVRMMS [R4S] are within error of each other in abundance fitness: -0.052 ± 0.15 for the first, -0.276 ± 0.083 for the second.

RELHDAFREFDTNGDGRISVGELRAALKALLGERLSQREVDEILQDVDLNGDGLVDFEEFVRMMS [R4H] and RELVDAFREFDTNGDGRISVGELRAALKALLGERLSQREVDEILQDVDLNGDGLVDFEEFVRMMS [R4V] are within error of each other in abundance fitness: -0.074 ± 0.1 for the first, -0.107 ± 0.049 for the second.
